This experiment deals with T1, human plasma fibronectin (human, UniProt P02751 32-2296).
T1 construct: Bought (Sigma); used in solution for ligand blots, coated on microtitre wells, or coupled to Sepharose; also called Fn; human Fn
Put plainly: ELISA, recombinant protein titrated on immobilized human Fn (100 ng/well), detected with antiserum.

T1 sequence (P02751 other isoform, or with tags, fused parts or gaps limits assumed): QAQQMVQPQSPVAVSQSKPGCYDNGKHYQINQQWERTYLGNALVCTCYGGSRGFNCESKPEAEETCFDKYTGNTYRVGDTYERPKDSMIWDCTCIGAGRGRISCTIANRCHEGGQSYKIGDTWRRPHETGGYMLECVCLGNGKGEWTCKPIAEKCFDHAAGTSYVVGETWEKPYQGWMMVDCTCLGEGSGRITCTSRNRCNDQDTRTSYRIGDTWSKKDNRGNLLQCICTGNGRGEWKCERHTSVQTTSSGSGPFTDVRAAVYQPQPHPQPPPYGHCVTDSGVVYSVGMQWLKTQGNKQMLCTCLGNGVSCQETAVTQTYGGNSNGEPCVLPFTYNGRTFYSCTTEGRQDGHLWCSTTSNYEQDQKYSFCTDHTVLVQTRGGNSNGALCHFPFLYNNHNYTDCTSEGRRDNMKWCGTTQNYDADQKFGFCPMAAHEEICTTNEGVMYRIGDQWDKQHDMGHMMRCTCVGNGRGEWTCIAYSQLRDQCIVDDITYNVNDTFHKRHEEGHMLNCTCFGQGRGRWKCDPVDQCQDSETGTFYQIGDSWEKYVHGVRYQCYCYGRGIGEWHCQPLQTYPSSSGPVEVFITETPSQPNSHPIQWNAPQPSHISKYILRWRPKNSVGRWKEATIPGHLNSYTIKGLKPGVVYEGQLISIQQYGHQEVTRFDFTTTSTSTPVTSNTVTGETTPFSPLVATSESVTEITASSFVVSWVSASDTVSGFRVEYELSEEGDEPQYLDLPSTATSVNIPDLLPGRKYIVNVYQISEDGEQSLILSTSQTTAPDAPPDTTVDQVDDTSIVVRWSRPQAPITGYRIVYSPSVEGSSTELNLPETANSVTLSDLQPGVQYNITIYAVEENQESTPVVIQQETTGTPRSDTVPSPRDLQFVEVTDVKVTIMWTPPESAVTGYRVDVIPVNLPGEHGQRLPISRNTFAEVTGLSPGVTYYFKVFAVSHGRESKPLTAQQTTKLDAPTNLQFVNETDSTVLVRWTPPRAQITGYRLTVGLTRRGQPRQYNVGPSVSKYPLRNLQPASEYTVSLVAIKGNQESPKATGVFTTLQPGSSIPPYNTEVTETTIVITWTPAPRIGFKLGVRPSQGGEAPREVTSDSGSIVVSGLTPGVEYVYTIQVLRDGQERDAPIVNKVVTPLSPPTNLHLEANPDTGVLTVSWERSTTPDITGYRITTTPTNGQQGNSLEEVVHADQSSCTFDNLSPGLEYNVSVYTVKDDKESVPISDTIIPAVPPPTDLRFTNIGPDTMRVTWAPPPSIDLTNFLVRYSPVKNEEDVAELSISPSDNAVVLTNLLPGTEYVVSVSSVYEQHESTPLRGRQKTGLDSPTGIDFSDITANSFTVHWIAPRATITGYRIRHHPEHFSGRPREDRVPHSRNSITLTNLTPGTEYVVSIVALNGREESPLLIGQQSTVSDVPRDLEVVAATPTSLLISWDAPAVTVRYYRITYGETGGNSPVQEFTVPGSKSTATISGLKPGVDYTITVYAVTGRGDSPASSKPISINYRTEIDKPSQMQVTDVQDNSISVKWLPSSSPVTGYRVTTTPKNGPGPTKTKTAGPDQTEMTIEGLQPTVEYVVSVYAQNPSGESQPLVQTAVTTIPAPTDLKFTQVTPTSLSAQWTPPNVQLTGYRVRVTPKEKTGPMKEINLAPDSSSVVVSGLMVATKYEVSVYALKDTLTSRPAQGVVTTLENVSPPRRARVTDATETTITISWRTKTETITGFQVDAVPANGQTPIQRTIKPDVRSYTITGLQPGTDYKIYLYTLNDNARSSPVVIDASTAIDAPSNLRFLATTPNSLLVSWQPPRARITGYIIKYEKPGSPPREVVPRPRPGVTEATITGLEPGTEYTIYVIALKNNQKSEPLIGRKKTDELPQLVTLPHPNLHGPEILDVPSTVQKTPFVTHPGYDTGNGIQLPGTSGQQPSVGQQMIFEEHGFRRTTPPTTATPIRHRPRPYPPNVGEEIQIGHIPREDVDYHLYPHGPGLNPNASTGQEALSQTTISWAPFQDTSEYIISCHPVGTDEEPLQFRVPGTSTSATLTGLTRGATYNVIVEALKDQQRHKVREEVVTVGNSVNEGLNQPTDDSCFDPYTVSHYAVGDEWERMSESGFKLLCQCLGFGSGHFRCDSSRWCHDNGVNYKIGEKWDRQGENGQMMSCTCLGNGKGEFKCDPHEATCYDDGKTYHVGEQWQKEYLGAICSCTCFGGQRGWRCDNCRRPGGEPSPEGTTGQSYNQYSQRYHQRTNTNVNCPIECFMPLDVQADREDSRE

B1: recombinant NPDH (His10-NPDH-B), amino acids 1-244 of Mycoplasma pneumoniae pyruvate dehydrogenase E1 beta subunit (other)
chain: MSKTIQANNIEALGNAMDLALERDPNVVLYGQDAGFEGGVFRATKGLQKKYGEERVWDCPIAEAAMAGIGVGAAIGGLKPIVEIQFSGFSFPAMFQIFTHAARIRNRSRGVYTCPIIVRMPMGGGIKALEHHSETLEAIYGQIAGLKTVMPSNPYDTKGLFLAAVESPDPVVFFEPKKLYRAFRQEIPADYYTVPIGQANLISQGNNLTIVSYGPTMFDLINMVYGGELKDKGIELIDLRTISP
B1: the dissociation constant (Kd) was 0.075 µg/mL.

Values taken from patent US20040241689A1 (published 2004).
